No end group written: not given here. *: point of attachment. Biotin = O=C1N[C@H]2[C@H](CS[C@H]2CCCCC(=O)*)N1
B1: ACS2P1-biotin (peptide)
peptide: PQEQITQHGSPYGRC
modifications: biotinylated at the terminal proline; C-terminal -CO--NH2; acetylated (position not given)
B2: fetuin (other)
chain: IPLDPVAGYKEPACDDPDTEQAALAAVDYINKHLPRGYKHTLNQIDSVKVWPRRPTGEVYDIEIDTLETTCHVLDPTPLANCSVRQQTQHAVEGDCDIHVLKQDGQFSVLFTKCDSSPDSAEDVRKLCPDCPLLAPLNDSRVVHAVEVALATFNAESNGSYLQLVEISRAQFVPLPVSVSVEFAVAATDCIAKEVVDPTKCNLLAEKQYGFCKGSVIQKALGGEDVRVTCTLFQTQPVIPQPQPDGAEAEAPSAVPDAAGPTPSAAGPPVASVVVGPSVVAVPLPLHRAHYDLRHTFSGVASVESSSGEAFHVGKTPIVGQPSIPGGPVRLCPGRIRYFKI
modifications: sialylated glycans (multiple copies of the αNeu5Ac(2→3)βGal(1→4)βGlc- structure)

Experiments:
[1] = target: pertussis toxin (Bordetella pertussis) (UniProt P04977)
[2] = target: fetuin (Bos taurus (Bovine)) (UniProt P12763); test: inhibition ELISA; competitor ACS2P1-biotin on coated fetuin; peptide 5520 µM
[3] = target: asialofetuin (Bos taurus (Bovine)) (UniProt P12763); test: inhibition ELISA; competitor PT-biotin on coated asialofetuin; peptide 4.4 mg/mL
[4] = target: fetuin (Bos taurus (Bovine)) (UniProt P12763); test: inhibition ELISA; competitor MAL-biotin on coated fetuin; peptide 4.4 mg/ml (repeats Table II)
[5] = target: fetuin (Bos taurus (Bovine)) (UniProt P12763); test: inhibition ELISA; competitor WGA-biotin on coated fetuin; peptide 4.4 mg/ml (repeats Table II)
[6] = target: fetuin (Bos taurus (Bovine)) (UniProt P12763); test: inhibition ELISA; competitor PT-biotin on coated fetuin; peptide 4.4 mg/mL
[7] = target: fetuin (Bos taurus (Bovine)) (UniProt P12763); test: inhibition ELISA; competitor SNA-biotin on coated fetuin; peptide 4.4 mg/ml (Table II prints -2 ± 2)
[8] = target: fetuin (Bos taurus (Bovine)) (UniProt P12763); test: inhibition ELISA; competitor SNA-biotin on coated fetuin; peptide 4.4 mg/mL
[9] = target: fetuin (Bos taurus (Bovine)) (UniProt P12763); test: inhibition ELISA; competitor PT-biotin on coated fetuin; peptide 4.4 mg/ml (repeats Table II)
[10] = target: fetuin (Bos taurus (Bovine)) (UniProt P12763); test: inhibition ELISA; competitor MAL-biotin on coated fetuin; peptide 4.4 mg/mL
[11] = target: asialofetuin (Bos taurus (Bovine)) (UniProt P12763); test: inhibition ELISA; competitor ACS2P1-biotin on coated asialofetuin; peptide 5520 µM
[12] = target: fetuin (Bos taurus (Bovine)) (UniProt P12763); test: inhibition ELISA; competitor WGA-biotin on coated fetuin; peptide 4.4 mg/mL
[13] = target: αNeuAc(2-3)βGal(1-4)βGlcNAc-BSA with (1-3) αFuc (bovine) (UniProt P02769); test: direct ELISA, 0.5 µg biotinylated peptide on BSA conjugate coated at 50 µg/mL
[14] = target: αNeuAc(2-3)βGal(1-4)βGlcNAc-BSA (bovine) (UniProt P02769); test: as above
[15] = target: αNeuAc(2-3)βGal(1-3)βGlcNAc-BSA with (1-4) αFuc (bovine) (UniProt P02769); test: as above
[16] = target: αNeuAc(2-3)βGal(1-3)βGlcNAc-BSA (bovine) (UniProt P02769); test: as above
[17] = target: αNeuAc(2-6)βGal(1-4)βGlcNAc-BSA (bovine) (UniProt P02769); test: as above
[18] = target: fetuin (Bos taurus (Bovine)) (UniProt P12763); test: inhibition ELISA; competitor MAL-biotin on coated fetuin; peptide 1.0 mg/mL
[19] = target: fetuin (Bos taurus (Bovine)) (UniProt P12763); test: inhibition ELISA; competitor WGA-biotin on coated fetuin; peptide 1.0 mg/mL
[20] = target: fetuin (Bos taurus (Bovine)) (UniProt P12763); test: inhibition ELISA; competitor SNA-biotin on coated fetuin; peptide 1.0 mg/mL
[21] = target: fetuin (Bos taurus (Bovine)) (UniProt P12763); test: inhibition ELISA; competitor WGA-biotin on coated fetuin
[22] = target: fetuin (Bos taurus (Bovine)) (UniProt P12763); test: inhibition ELISA; competitor PT-biotin on coated fetuin
[23] = target: fetuin (Bos taurus (Bovine)) (UniProt P12763); test: inhibition ELISA; competitor PT-biotin on coated fetuin; peptide 1.0 mg/mL
pertussis toxin [24] = target: T1, pertussis toxin (Bordetella pertussis, UniProt P04977); test: cell-based or functional assay
[25] = target: αNeuAc(2-6)βGal(1-4)βGlcNAc-BSA (bovine, UniProt P02769, conjugated carbohydrate αNeuAc(2-6)βGal(1-4)βGlcNAc-); test: direct ELISA, 0.1 µg biotinylated peptide on BSA conjugate coated at 50 µg/mL
[26] = target: αNeuAc(2-3)βGal(1-3)βGlcNAc-BSA (bovine, UniProt P02769, conjugated carbohydrate αNeuAc(2-3)βGal(1-3)βGlcNAc-); test: as above
[27] = target: αNeuAc(2-3)βGal(1-3)βGlcNAc-BSA with (1-4) αFuc (bovine, UniProt P02769, conjugated carbohydrate αNeuAc(2-3)βGal(1-3)[αFuc(1-4)]βGlcNAc-); test: as above
[28] = target: αNeuAc(2-3)βGal(1-4)βGlcNAc-BSA with (1-3) αFuc (bovine, UniProt P02769, conjugated carbohydrate αNeuAc(2-3)βGal(1-4)[αFuc(1-3)]βGlcNAc-); test: as above
[29] = target: αNeuAc(2-3)βGal(1-4)βGlcNAc-BSA (bovine, UniProt P02769, conjugated carbohydrate αNeuAc(2-3)βGal(1-4)βGlcNAc-); test: as above
asialofetuin = target: T2, asialofetuin (Bos taurus (Bovine), UniProt P12763, glycans without sialic acid (asialo-)); test: direct ELISA, 10 µg/ml biotinylated peptide on glycoprotein coated at 3 µg/ml
T2 sequence: B2 chain

asialoagalactofetuin = target: T3, asialoagalactofetuin (Bos taurus (Bovine), UniProt P12763, glycans without sialic acid and galactose (asialoagalacto-)); test: as above
T3 sequence: B2 chain

fetuin [30] = target: B2; test: inhibition ELISA; competitor WGA-biotin on coated fetuin
fetuin [31] = target: B2; test: inhibition ELISA; competitor ACS2P1-biotin on coated fetuin; concentration giving -50% (called IC50 in paragraph 228, n=2)
pertussis toxin [32] = target: T1, pertussis toxin; test: inhibition ELISA; fetuin against ACS2P1-biotin on immobilised PT

Molecule: SPYGRC (peptide)
- Maximal Inhibitory Concentration for Greater than 50% Inhibition (CHO cell clumping) [1]: 480 pg/mL

Molecule: SPYGRC (peptide; other documents disagree on this pair)
- percent change in binding activity [2]: -24%
- percent change in binding activity [3]: 7%
- % changes in binding activity [4]: -16%
- % changes in binding activity [5]: 7%
- percent change in binding activity [6]: 34%
- % changes in binding activity [7]: -2%
- percent change in binding activity [8]: -2%
- % changes in binding activity [9]: 34%
- percent change in binding activity [10]: -16%
- percent change in binding activity [11]: -54%
- percent change in binding activity [12]: 7%

Molecule: SPYGRC-biotin (peptide; other documents disagree on this pair)
- % binding relative to fetuin [13]: 120%
- % binding relative to fetuin [14]: 120%
- % binding relative to fetuin [15]: 103%
- % binding relative to fetuin [16]: 97%
- % binding relative to fetuin [17]: 122%

Molecule: WGA(62-73) (peptide)
- percent change in binding activity [18]: -1%
- percent change in binding activity [19]: -9%
- percent change in binding activity [20]: -3%
- IC50 [21]: 3400 µM
- IC50 [22]: 1500 µM
- percent change in binding activity [23]: -32%

Molecule: RLLASTNSRLCAVFVRDG [S3P9a]
- Maximal Inhibitory Concentration for Greater than 50% Inhibition (CHO cell clumping) (pertussis toxin [24]): > 300 ng/mL

Molecule: STPGIVIPPQEQITQHGSPYGRC [S2P2]
- Maximal Inhibitory Concentration for Greater than 50% Inhibition (CHO cell clumping) (pertussis toxin [24]): > 300 ng/mL

Molecule: B1
- % binding relative to fetuin [25]: 94%
- % binding relative to fetuin [26]: 70%
- % binding relative to fetuin [27]: 84%
- % binding relative to fetuin [28]: 84%
- % binding relative to fetuin [29]: 117%
- % binding relative to fetuin (asialofetuin): 45%
- % binding relative to fetuin (asialoagalactofetuin): 93%

Molecule: PQEQITQHGSPYGRC (also: acetylated, site not given here) [ACS2P1]
- IC50 (fetuin [30]): 3250 µM
- IC50 (fetuin [31]): 4.1 µM

Molecule: PKALFTQQGGAYGRC [S3P1]
- Maximal Inhibitory Concentration for Greater than 50% Inhibition (CHO cell clumping) (pertussis toxin [24]): > 300 ng/mL

Molecule: VAPGIVIPPKALFTQQGGAYGRC [S3P2]
- Maximal Inhibitory Concentration for Greater than 50% Inhibition (CHO cell clumping) (pertussis toxin [24]): > 300 ng/mL

Molecule: B2
- IC50 (pertussis toxin [32]): 50 µM
